Results on five molecules are retold here after doi:10.1101/2025.05.02.651952 (bioRxiv, 2025).

Residue numbers refer to the chain shown, from its start.

B1: Sis1-WT (natural protein)
chain: MVKETKLYDLLGVSPSANEQELKKGYRKAALKYHPDKPTGDTEKFKEISEAFEILNDPQKREIYDQYGLEAARSGGPSFGPGGPGGAGGAGGFPGGAGGFSGGHAFSNEDAFNIFSQFFGGSSPFGGADDSGFSFSSYPSGGGAGMGGMPGGMGGMHGGMGGMPGGFRSASSSPTYPEEETVQVNLPVSLEDLFVGKKKSFKIGRKGPHGASEKTQIDIQLKPGWKAGTKITYKNQGDYNPQTGRRKTLQFVIQEKSHPNFKRDGDDLIYTLPLSFKESLLGFSKTIQTIDGRTLPLSRVQPVQPSQTSTYPGQGMPTPKNPSQRGNLIVKYKVDYPISLNDAQKRAIDENF
B2: Sis1-[change] (natural protein)
chain: B1 chain with S49V
B3: Sis1-[change] (natural protein)
chain: B1 chain with E53K
B4: Sis1-[change] (natural protein)
chain: B1 chain with N56L
B5: Sis1-[change] (natural protein)
chain: B1 chain with E53A

Chain of firefly luciferase (denatured) (P08659 whole entry): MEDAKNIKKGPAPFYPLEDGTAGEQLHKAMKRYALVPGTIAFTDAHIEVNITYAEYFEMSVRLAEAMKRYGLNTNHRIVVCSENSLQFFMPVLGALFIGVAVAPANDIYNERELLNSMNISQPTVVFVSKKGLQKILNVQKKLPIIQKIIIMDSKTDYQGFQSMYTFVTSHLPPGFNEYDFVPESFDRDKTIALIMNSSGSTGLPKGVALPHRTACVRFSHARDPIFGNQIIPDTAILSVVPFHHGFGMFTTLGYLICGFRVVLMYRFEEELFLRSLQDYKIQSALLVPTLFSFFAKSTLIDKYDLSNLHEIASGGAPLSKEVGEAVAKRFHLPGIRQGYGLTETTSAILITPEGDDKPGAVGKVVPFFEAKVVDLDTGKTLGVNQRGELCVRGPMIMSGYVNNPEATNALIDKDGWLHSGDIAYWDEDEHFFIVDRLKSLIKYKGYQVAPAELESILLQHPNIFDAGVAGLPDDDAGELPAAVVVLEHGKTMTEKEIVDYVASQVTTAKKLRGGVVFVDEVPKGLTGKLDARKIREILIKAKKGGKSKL

One assay addresses firefly luciferase (denatured) (firefly, UniProt P08659 1-550 = luciferase). The experiment in a line: ELISA. On the technique in general: An ELISA detects its analyte on a solid surface through an enzyme-linked reagent.
Turning to B1, the binding result is reported as “binds”.
B2: the binding result is on record as “binds”.
Consider B3, for which the binding result is “binds”.
B4: the binding result is given as “binds”.
As to B5, the binding result is “binds”.

The target in the next assay is Ssa1-WT (yeast, UniProt P10591 1-642). The assay is described as follows: ELISA.
Chain of Ssa1-WT (P10591 whole entry): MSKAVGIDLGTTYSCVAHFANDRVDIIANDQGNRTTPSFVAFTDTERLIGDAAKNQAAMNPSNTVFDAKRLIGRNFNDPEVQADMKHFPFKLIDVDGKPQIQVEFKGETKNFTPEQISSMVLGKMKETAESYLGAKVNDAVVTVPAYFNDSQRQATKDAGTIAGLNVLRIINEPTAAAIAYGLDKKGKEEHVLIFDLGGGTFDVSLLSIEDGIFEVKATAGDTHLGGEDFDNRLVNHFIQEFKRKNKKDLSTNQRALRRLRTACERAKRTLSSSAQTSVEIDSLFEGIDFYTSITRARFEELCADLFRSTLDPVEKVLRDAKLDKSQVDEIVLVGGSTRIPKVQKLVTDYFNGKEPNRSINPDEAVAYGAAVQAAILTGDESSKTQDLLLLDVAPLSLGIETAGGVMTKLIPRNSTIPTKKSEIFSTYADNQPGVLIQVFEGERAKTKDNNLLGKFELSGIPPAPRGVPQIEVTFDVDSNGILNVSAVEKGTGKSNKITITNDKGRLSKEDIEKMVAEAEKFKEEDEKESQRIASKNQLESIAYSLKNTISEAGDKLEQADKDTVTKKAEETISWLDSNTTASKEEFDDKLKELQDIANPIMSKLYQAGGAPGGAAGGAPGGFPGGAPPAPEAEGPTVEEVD
As to B1, the binding result is reported as “binds”.
Consider B2, for which the binding result is recorded as “binds”.
Take B3: the binding result was “binds”.
For the molecule B4, the binding result is on record as “binds”.
For B5, the binding result is listed as “binds”.
